From patent publication US20090010935A1

Columns and labels:
[1] = target: human epidermal growth factor receptor (EGFR), full-length wild type (human) (UniProt P00533); test: cell-based or functional assay
[2] = target: ΔEGFR, extracellular-deleted mutant human EGFR (EGFRvIII) (human) (UniProt P00533); test: cell-based or functional assay

In the case of “N757 (Nneu K757M, ATP-binding site mutant of rat cellular p185) (from UniProt P06494 23-1257) (receptor)”, the EGF-induced down-regulation of cell-surface EGFR in cells co-expressing EGFR and kinase deficient Neu (flow cytometry) [1] is reported as 20 to 25%.

With “N691 stop (cytoplasmic domain deleted rat cellular p185) (from UniProt P06494 23-690) (receptor)” the EGF-induced down-regulation of cell-surface EGFR in cells co-expressing EGFR and kinase deficient Neu (flow cytometry) [1] was 20 to 25%.

In the case of “wildtype rat cellular p185 (Nneu) (from UniProt P06494 23-1257) (receptor)”, the co-downregulation of cellular p185 with EGFR upon EGF treatment, M1 cells (flow cytometry) [1] is reported as 20% and the half life of WT cellular p185 after EGF treatment (pulse-chase, densitometry) [1] is reported as 3 h.

Work on “T691 stop neu (ectodomain-derived, carboxyl-terminal deletion mutant of the rat p185neu oncogene) (from UniProt P06494 23-654) (receptor)” yielded a phosphorylation content of immunoprecipitated p155 ΔEGFR monomers (mAb Δ124 immunoprecipitation, PY-20 blot, scanning densitometry) [2] of 33.7%, an inhibition of anchorage-independent growth by T691 stop neu in U87MG parental cells lacking ΔEGFR [1] of 75.2% and a radiation-induced apoptosis (DAPI), U87/T691 cells, 72 h after gamma-irradiation [1] of 20%. For the same substance, the radiation-induced apoptosis (DAPI), U87/T691 cells, prolonged serum deprivation combined with radiation [1] was 33%.
